Series [1] has as its system CN1CC(O)N(c2cc(C(F)(F)F)ccn2)C1=O. The series can be described thus: UDP-Glo glucosyl transferase assay, purified enzyme. Format: biochemical, Zea mays. The note with it: other: DMSO reagent blank as control, pH 7.5.
In series [2] the target is T1, SEQ ID NO 19, mutant of Zea mays bx9 glucosyl transferase (Zea mays, UniProt B4G072, A281K/A334K/L194V/M279F/S117V).
T1 construct: His tag (C); made in house
The series is described as above. The format is biochemical. The note with it: herbicide mM: V 0.300, VI 0.250, VII 0.210; IV, VIII, XI, XXI, XX, XVIII, XVI, XV, XIV 0.200; others 1.000.

Series [3] addresses T2, SEQ ID NO 18, mutant of Zea mays bx9 glucosyl transferase (Zea mays, UniProt B4G072, A281K/A334K/F21Y/M279F/S117V).
T2 construct: His tag (C); made in house
Described as above. Format: biochemical. The note with it: herbicide mM: V 0.300, VI 0.250, VII 0.210; IV, VIII, XI, XXI, XX, XVIII, XVI, XV, XIV 0.200; others 1.000.

For series [4], the target named is T3, SEQ ID NO 23, mutant of Zea mays bx9 glucosyl transferase (Zea mays, UniProt B4G072, A334K/F21Y/L194C/M279F/S117V).
T3 construct: His tag (C); made in house
The series is described as above. Format: biochemical. The note with it: lower block, concentration printed only in upper block: V 0.300, VII 0.210; IV, VIII, XI, XXI, XX, XVIII, XVI, XV, XIV 0.200; others 1.000 mM.

The target in series [5] is T4, Zea mays bx9 glucosyl transferase (C-terminally his tagged SEQ ID NO: 1) (Zea mays, UniProt B4G072).
T4 construct: His tag (C); made in house; host or cells: E. coli BL21 (DE3), pET24a
T4 sequence (B4G072 1-462): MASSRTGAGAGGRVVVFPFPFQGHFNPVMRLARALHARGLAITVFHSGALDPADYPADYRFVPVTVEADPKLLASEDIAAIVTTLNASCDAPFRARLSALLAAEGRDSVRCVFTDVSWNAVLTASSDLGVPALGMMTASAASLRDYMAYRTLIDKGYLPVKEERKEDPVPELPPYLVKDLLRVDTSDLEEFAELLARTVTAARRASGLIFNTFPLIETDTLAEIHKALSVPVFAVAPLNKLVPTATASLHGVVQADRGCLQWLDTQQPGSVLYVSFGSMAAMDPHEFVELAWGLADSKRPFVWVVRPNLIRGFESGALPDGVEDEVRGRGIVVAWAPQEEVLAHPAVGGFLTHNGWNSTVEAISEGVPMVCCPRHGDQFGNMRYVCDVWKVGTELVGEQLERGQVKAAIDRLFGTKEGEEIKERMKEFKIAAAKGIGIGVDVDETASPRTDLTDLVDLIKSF
The series is described as above. The format is biochemical. The note with it: herbicide mM: V 0.300, VI 0.250, VII 0.210; IV, VIII, XI, XXI, XX, XVIII, XVI, XV, XIV 0.200; others 1.000.

For series [6], the target named is T5, SEQ ID NO 17, zmBX9 S117V, M279F, A334K mutant (Zea mays, UniProt B4G072, A334K/M279F/S117V).
T5 construct: polypeptides were the C-terminally his-tagged; His tag (C); made in house
Described as above. Format: biochemical. The note with it: herbicide mM: V 0.300, VI 0.250, VII 0.210; IV, VIII, XI, XXI, XX, XVIII, XVI, XV, XIV 0.200; others 1.000.

Series [7] addresses T6, SEQ ID NO 22, mutant of Zea mays bx9 glucosyl transferase (Zea mays, UniProt B4G072, A334K/F21Y/M279F/S117V/T220P).
T6 construct: His tag (C); made in house
The series is described as above. The format is biochemical. The note with it: lower block, concentration printed only in upper block: V 0.300, VII 0.210; IV, VIII, XI, XXI, XX, XVIII, XVI, XV, XIV 0.200; others 1.000 mM.

Series [8] has as its target T7, SEQ ID NO 21, mutant of Zea mays bx9 glucosyl transferase (Zea mays, UniProt B4G072, A334K/F21Y/L194V/M279F/S117V).
T7 construct: His tag (C); made in house
The series is described as above. The format is biochemical. The note with it: lower block, concentration printed only in upper block: V 0.300, VII 0.210; IV, VIII, XI, XXI, XX, XVIII, XVI, XV, XIV 0.200; others 1.000 mM.

Series [9] concerns the target T8, SEQ ID NO 20, mutant of Zea mays bx9 glucosyl transferase (Zea mays, UniProt B4G072, A281K/A334K/F21Y/L194V/M279F/S117V).
T8 construct: His tag (C); made in house
Format: biochemical. The note with it: lower block, concentration printed only in upper block: V 0.300, VII 0.210; IV, VIII, XI, XXI, XX, XVIII, XVI, XV, XIV 0.200; others 1.000 mM.

Series [10] is described as follows: LC/MS plate assay of crude E. coli extracts, Zea mays bx8 derivatives, herbicide V. Format: biochemical. The note with it: for activity with herbicide V: LC/MS; for activity relative to like-expressed Zea mays bx9 w/t extract: herbicide V, LC/MS peaks, estimate. As to the method:
In an alternative method for assaying the various enzymes, the test glucosyl transferase enzyme is reacted with substrates exactly as above except that the assay is stopped by adding an equal volume of acetonitrile. Alternatively 50 or 100 μl samples from assay reactions are added to 500 μl ethyl acetate to stop the reaction. In this case samples are then vortexed and 400 μl of the ethyl acetate partition removed, dried down, and resuspended in 100 μl 80:20 acetonitrile/water. The formation of product gluco side and/or disappearance of substrate test herbicide is then monitored directly by LC/MS. Samples are analyzed by LC-MS using an Agilent 1290 liquid chromatography system and Thermo Q-Exactive mass spectrometer. The chromatography is achieved on a Waters Acquity C18 BEH (50×2.1 mm) 1.7 μm particle size column, using a 6 minute gradient run of Water (0.2% formic acid) and Acetonitrile. The Q-Exactive is operated in positive ionisation electrospray mode, using Full scan-AIF mode, at 35,000 resolution, between 100-800 m/z. All analytes are identified from the full scan data to within at least 5 ppm accuracy of their predicted pseudo-molecular ion [M+H]^+ m/z value. In order to obtain quantitative data standard curves are run using herbicides and herbicide glucosides synthesized as standards. Where these synthetic glucosides were not available the LC/MS assay could only be used to provide relative data.
The glucosyl transferase activities of the mutant bx8-derived polypeptides expressed in these strains were initially assayed versus herbicide V as described in Example 1. The partly purified C-terminally his tagged w/t bx8 enzyme (SEQ ID No: 2) catalyzed glucosyl transfer to herbicide V at a low rate estimated to be less than about 0.002/s at 1 mM herbicide V which, because of a relatively high background of UDP formation in the DMSO (no substrate reagent control) was difficult to quantify using the luminescence assay. Thus further assays were run by LC/MS using which technique the formation of an O-beta glucosyl glucoside of herbicide V could more easily be confirmed but only quantified in a relative sense. Thus the various derivatives of C-terminally his tagged Zea mays bx8 SEQ ID No:2 were cloned and expressed in E. coli BL21 (DE3) as described in Example 1 and assayed in plates as crude extracts, as in Example 2, but monitored by LCMS rather than the luminescence assay.
The different stereoisomer standards chromatographed distinctly on LC (FIGS. 8A-8H). By comparing the LC elution profiles of the standards with the enzyme products at the correct mass it was possible to characterize which polypeptides catalyzed the formation of which O-glucosides. Assay samples and glucoside conjugate standards are run using the identical chromatographic conditions to allow us to identify the conjugate isomer formed in the assay. In short, as would be expected for inverting glucosyl transferases all of the bx enzymes tested produced beta glucoside products (from the alpha-UDP-glucose substrate) from all herbicides tested. But there can be subtle variations between enzymes in stereochemistry of the products made at other chiral centers.

Substitutions are numbered along the chain they refer to. In names and notes the source's numbering stands.

One may read the Km as the concentration of substrate that gives half-maximal velocity. The kcat is the maximal rate divided by the concentration of active sites. What is called kcat/Km is the turnover number divided by the Michaelis constant.

T3 sequence (B4G072 whole entry F21Y/S117V/L194C/M279F/A334K): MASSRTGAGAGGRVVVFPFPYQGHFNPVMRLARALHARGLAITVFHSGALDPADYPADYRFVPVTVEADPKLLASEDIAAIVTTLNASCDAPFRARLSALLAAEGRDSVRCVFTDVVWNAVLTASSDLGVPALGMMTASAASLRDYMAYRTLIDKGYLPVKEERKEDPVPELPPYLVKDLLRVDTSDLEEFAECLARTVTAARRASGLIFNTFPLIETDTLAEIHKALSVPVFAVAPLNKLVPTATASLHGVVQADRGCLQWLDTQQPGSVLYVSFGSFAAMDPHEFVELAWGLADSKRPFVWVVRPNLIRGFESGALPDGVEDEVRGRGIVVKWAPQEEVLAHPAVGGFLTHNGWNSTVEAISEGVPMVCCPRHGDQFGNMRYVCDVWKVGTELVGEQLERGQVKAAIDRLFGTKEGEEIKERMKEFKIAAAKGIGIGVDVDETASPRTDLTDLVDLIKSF
T2 sequence (B4G072 whole entry F21Y/S117V/M279F/A281K/A334K): as the sequence (B4G072 whole entry F21Y/S117V/L194C/M279F/A334K) above, with C194L, A281K counted along it
T5 sequence (B4G072 whole entry S117V/M279F/A334K): as the sequence (B4G072 whole entry F21Y/S117V/L194C/M279F/A334K) above, with Y21F, C194L counted along it
T7 sequence (B4G072 whole entry F21Y/S117V/L194V/M279F/A334K): as the sequence (B4G072 whole entry F21Y/S117V/L194C/M279F/A334K) above, with C194V counted along it
T6 sequence (B4G072 whole entry F21Y/S117V/T220P/M279F/A334K): as the sequence (B4G072 whole entry F21Y/S117V/L194C/M279F/A334K) above, with C194L, T220P counted along it
T8 sequence (B4G072 whole entry F21Y/S117V/L194V/M279F/A281K/A334K): as the sequence (B4G072 whole entry F21Y/S117V/L194C/M279F/A334K) above, with C194V, A281K counted along it
T1 sequence (B4G072 whole entry S117V/L194V/M279F/A281K/A334K): as the sequence (B4G072 whole entry F21Y/S117V/L194C/M279F/A334K) above, with Y21F, C194V, A281K counted along it

Consider “SEQ ID NO 21, mutant of Zea mays bx9 glucosyl transferase (Zea mays; A334K/F21Y/L194V/M279F/S117V)”, for which, in [1], the Km worked out at 57.3 µM, the kcat worked out at 1.86 s⁻¹ and the kcat/Km came to 32500 M⁻¹ s⁻¹.
Turning to `CC1C(O)N(c2cc(C(F)(F)F)c(Cl)cn2)C(=O)N1C` (stereo not drawn) [XIX], the Activity is given as 0.363 pmol/sec/pmol enzyme in [2]; 0.467 pmol/sec/pmol enzyme in series [3]; 0.207 pmol/sec/pmol enzyme in series [4]; −0.001 pmol/sec/pmol enzyme in series [5]; 0.157 pmol/sec/pmol enzyme in [6]; 0.315 pmol/sec/pmol enzyme in [7]. Moreover, the figures for the Activity in [8] and in [9] were 0.234 pmol/sec/pmol enzyme and 0.414 pmol/sec/pmol enzyme, respectively.

B1: SEQ ID NO: 50: zmBX8/zmBX9 hybrid polypeptide (protein)
chain: MAASCGGRVVVFPFPFQGHFNPVMRLARALHARGVGITVFHTAGARAPDPADYPADYRFVPVPVEVAPELMASEDIAAIVTALNAACEAPFRDRLSALLSAADGEAGEAGGRVRCVLTDVSWDAVLSAARGLGVPALGVMTASAATFRVYMAYRTLVDKGYLPVREERKDDAVAELPPYRVKDLLRHETCDLEEFADLLGRVIAAARLSSGLIFHTFPFIEAGTLGEIRDDMSVPVYAVAPLNKLVPAATASLHGEVQADRGCLRWLDAQRARSVLYVSFGSMAAMDPHEFVELAWGLADAGRPFVWVVRPNLIRGFESGALPDGVEDRVRGRGVVVSWAPQEEVLAHPAVGGFFTHCGWNSTVEAISEGVPMVCCPRHGDQFGNMRYVCDVWKVGTELVGEQLERGQVKAAIDRLFGTKEGEEIKERMKEFKIAAAKGIGIGVDVDETASPRTDLTDLVDLIKSF
modifications: Hybrid sequence between Zea mays Bx8 and Bx9 sequences
notes: zmBX8/zmBX9 hybrid polypeptide
As to B1, in series [10], the “activity with herbicide V” value is “active”. The results for the “activity relative to like-expressed Zea mays bx9 w/t extract” value in series [10] and in [10] (listed as 50) were “about a third to a half” and “up to about half”, respectively.

B2: SEQ ID NO: 51: zmBX8/zmBX9 hybrid polypeptide (bx8/bx9 hybrid 2) (protein)
chain: B1 chain with I367V, V374I, C376H
modifications: Hybrid sequence between Zea mays Bx8 and Bx9 sequences
For B2, in [10], the “activity with herbicide V” value is “active”.

B3: SEQ ID NO: 58: zmBX8/zmBX9 hybrid polypeptide (protein)
chain: MAASCGGRVVVFPFPFQGHFNPVMRLARALHARGVGITVFHTAGARAPDPADYPADYRFVPVPVEVAPELMASEDIAAIVTALNAACEAPFRDRLSALLSAADGEAGEAGGRVRCVLTDVSWDAVLSAARGLGVPALGVMTASAATFRVYMAYRTLVDKGYLPVREERKDDAVAELPPYRVKDLLRHETCDLEEFADLLGRVIAAARLSSGLIFHTFPFIEAGTLGEIRDDMSVPVYAVAPLNKLVPTATASLHGVVQADRGCLQWLDAQRARSVLYVSFGSMAAMDPHEFVELAWGLADAGRPFVWVVRPNLIRGFESGALPDGVEDRVRGRGVVVSWAPQEEVLAHPAVGGFFTHCGWNSTVEAVSEGVPMICHPRHGDQYGNARYVCHVWKVGTEVAGDQLERGEIKAAIDRLMGGSEEGEGIRKRMNELKIAADKGIDESAGSDLTNLVHLINSY
modifications: Hybrid sequence between Zea mays Bx8 and Bx9 sequences
notes: as for B1
Take B3: the “activity with herbicide V” value in series [10] was “active”.

B4: A246T, E256V: double mutant of Zea mays bx8, printed A248T, E256V in b223 (protein)
chain: B3 chain with Q265R
modifications: Mutated Zea mays Bx8 protein sequence
notes: double mutant of Zea mays bx8, printed A248T, E256V
In the case of B4, in [10], the “activity with herbicide V” value was “detectable activity”.

B5: E256V, R265Q: double mutant of Zea mays bx8 (protein)
chain: B3 chain with T248A
modifications: Mutated Zea mays Bx8 protein sequence
Regarding B5, the “activity with herbicide V” value in series [10] is given as “detectable activity”.

B6: SEQ ID NO: 40: I374V, H376C double mutant of Zea mays bx8 (protein)
chain: B3 chain with T248A, V256E, Q265R, I374V, H376C
modifications: Mutated Zea mays Bx8 protein sequence
On to B6, for which, in [10], the “activity with herbicide V” value is on record as “detectable activity” and the “activity relative to like-expressed Zea mays bx9 w/t extract” value was “about a third to a half”. The “activity relative to like-expressed Zea mays bx9 w/t extract” value in [10] (listed as SEQ ID No 40) is given as “up to about half”.

B7: V367I, H376C: double mutant of Zea mays bx8 (protein)
chain: B3 chain with T248A, V256E, Q265R, V367I, H376C
modifications: Mutated Zea mays Bx8 protein sequence
In the case of B7, in [10], the “activity with herbicide V” value is “detectable activity”.

B8: V367I, I374V: double mutant of Zea mays bx8 (protein)
chain: B3 chain with T248A, V256E, Q265R, V367I, I374V
modifications: Mutated Zea mays Bx8 protein sequence
Regarding B8, the “activity with herbicide V” value in series [10] is on record as “detectable activity”.

B9: D170E, A72P, A174P: triple mutant of Zea mays bx8 (protein)
chain: B3 chain with A72P, D170E, A174P, T248A, V256E, Q265R
modifications: Mutated Zea mays Bx8 protein sequence
In the case of B9, the “activity with herbicide V” value in series [10] was “detectable activity”.

(Values after patent publication US20200270588A1, “GLUCOSYL TRANSFERASE POLYPEPTIDES AND METHODS OF USE” (Syngenta Participations AG, priority 2017, published 2020).)
